Test results reported in US20200392251A1.
Positions count from the first letter of the chain named.

Key:
[1] = biological target: human β-secretase 1 (BACE1), extracellular/catalytic domain (human) (UniProt P56817); assay: bio-layer interferometry (ForteBio), biotinylated protease on streptavidin biosensor, Fab in solution [panel B2B2]
[2] = biological target: human β-secretase 1 (BACE1), extracellular/catalytic domain (human) (UniProt P56817); assay: biolayer interferometry; biotinylated protease on streptavidin sensor, Fab in solution
[3] = biological target: human β-secretase 1 (BACE1), extracellular/catalytic domain (human) (UniProt P56817); assay: enzyme inhibition assay with FRET peptide substrate (M-2420), Fab titrated on BACE1 [panel B2B2]
[4] = biological target: human β-secretase 1 (BACE1), extracellular/catalytic domain (human) (UniProt P56817); assay: FRET peptide inhibition assay; KI=IC50/(S/Km+1)
[5] = biological target: human β-secretase 1 (BACE1), extracellular/catalytic domain (human) (UniProt P56817); assay: bio-layer interferometry (ForteBio), biotinylated protease on streptavidin biosensor, Fab in solution [panel B2B3]
[6] = biological target: human β-secretase 1 (BACE1), extracellular/catalytic domain (human) (UniProt P56817); assay: enzyme inhibition assay with FRET peptide substrate (M-2420), Fab titrated on BACE1 [panel B2B3]
[7] = biological target: human β-secretase 1 (BACE1), extracellular/catalytic domain (human) (UniProt P56817); assay: bio-layer interferometry (ForteBio), biotinylated protease on streptavidin biosensor, Fab in solution [panel B1B3]
[8] = biological target: human β-secretase 1 (BACE1), extracellular/catalytic domain (human) (UniProt P56817); assay: enzyme inhibition assay with FRET peptide substrate (M-2420), Fab titrated on BACE1 [panel B1B3]
[9] = biological target: human β-secretase 1 (BACE1), extracellular/catalytic domain (human) (UniProt P56817); assay: enzyme inhibition assay with FRET peptide substrate (M-2420), Fab titrated on BACE1 [panel B1A4]
[10] = biological target: human β-secretase 1 (BACE1), extracellular/catalytic domain (human) (UniProt P56817); assay: bio-layer interferometry (ForteBio), biotinylated protease on streptavidin biosensor, Fab in solution [panel B1A4]
[11] = biological target: catalytic domain of MMP-9 (cdMMP-9) (UniProt P14780); assay: bio-layer interferometry
[12] = biological target: catalytic domain of MMP-9 (cdMMP-9) (UniProt P14780); assay: FRET peptide inhibition assay; reference cdMMP-12 mutant D4
[13] = biological target: catalytic domain of MMP-9 (cdMMP-9) (UniProt P14780); assay: bio-layer interferometry; reference cdMMP-12 wt
[14] = biological target: catalytic domain of MMP-9 (cdMMP-9) (UniProt P14780); assay: FRET peptide inhibition assay
[15] = biological target: human β-secretase 1 (BACE1), extracellular/catalytic domain (human) (UniProt P56817); assay: enzyme inhibition assay with FRET peptide substrate, IgG titrated on BACE1 [panel A]
[16] = biological target: human β-secretase 1 (BACE1), extracellular/catalytic domain (human) (UniProt P56817); assay: biolayer interferometry; IgG on protein A sensor, protease in solution
[17] = biological target: human β-secretase 1 (BACE1), extracellular/catalytic domain (human) (UniProt P56817); assay: bio-layer interferometry (ForteBio), biotinylated protease on streptavidin biosensor, Fab in solution [panel B2B5]
[18] = biological target: human β-secretase 1 (BACE1), extracellular/catalytic domain (human) (UniProt P56817); assay: enzyme inhibition assay with FRET peptide substrate (M-2420), Fab titrated on BACE1 [panel B2B5]

Sequence of human β-secretase 1 (BACE1), extracellular/catalytic domain (human) (P56817 46-457 limits assumed, form in doubt): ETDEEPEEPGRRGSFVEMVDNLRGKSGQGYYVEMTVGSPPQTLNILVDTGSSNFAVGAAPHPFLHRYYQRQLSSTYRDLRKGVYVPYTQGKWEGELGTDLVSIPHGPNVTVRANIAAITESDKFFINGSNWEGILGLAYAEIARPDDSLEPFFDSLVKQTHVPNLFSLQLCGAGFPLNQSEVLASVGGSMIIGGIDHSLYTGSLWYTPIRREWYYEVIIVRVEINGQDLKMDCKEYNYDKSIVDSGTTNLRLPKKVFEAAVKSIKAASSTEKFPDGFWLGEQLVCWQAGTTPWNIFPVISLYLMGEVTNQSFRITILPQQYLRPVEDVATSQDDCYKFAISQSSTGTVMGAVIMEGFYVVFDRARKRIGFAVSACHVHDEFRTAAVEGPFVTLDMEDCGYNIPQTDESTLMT

B1: anti-BACE1 Fab B2B2 (Fab, V domains shown)
VH: EVQLVESGGGLVQPGGSLRLSCAASGFNISSYYMHWVRQAPGKGLEWVASIYSSYGYTYYADSVKGRFTISADTSKNTAYLQMNSLRAEDTAVYYCARYWGYYAWFGSHPWAYGAFDYWGQGTLVTVSS
VL: DIQMTQSPSSLSASVGDRVTITCRASQSVSSAVAWYQQKPGKAPKLLIYSASSLYSGVPSRFSGSRSGTDFTLTISSLQPEDFATYYCQQYGYYLITFGQGTKVEIKR
koff [1]: 0.0091 s⁻¹ | kon [1]: 180000 M⁻¹ s⁻¹ | Kd [2]: 52 nM | IC50 [3]: 110 nM | Ki [4]: 87 nM

B2: anti-BACE1 Fab B2B3 (Fab, V domains shown)
VH: EVQLVESGGGLVQPGGSLRLSCAASGFNISYSSIHWVRQAPGKGLEWVAYISSYSSSTYYADSVKGRFTISADTSKNTAYLQMNSLRAEDTAVYYCARSASGIDYWGQGTLVTVSS
VL: B1 VL with Y91S, Y94A, L95P, I96F
koff [5]: 0.0097 s⁻¹ | kon [5]: 93000 M⁻¹ s⁻¹ | Kd [2]: 100 nM | Ki [4]: 100 nM | IC50 [6]: 130 nM

B3: anti-BACE1 Fab B1B3 (Fab, V domains shown)
VH: EVQLVESGGGLVQPGGSLRLSCAASGFNISYYSMHWVRQAPGKGLEWVASISPYYGSTYYADSVKGRFTISADTSKNTAYLQMNSLRAEDTAVYYCARERSSCPVGWRDSRFGADGYGLEYWGQGTLVTVSS
VL: DIQMTQSPSSLSASVGDRVTITCRASQSVSSAVAWYQQKPGKAPKLLIYSASSLYSGVPSRFSGSRSGTDFTLTISSLQPEDFATYYCQQSGHYHSLITFGQGTKVEIKR
koff [7]: 0.013 s⁻¹ | kon [7]: 410000 M⁻¹ s⁻¹ | Kd [2]: 31 nM | Ki [4]: 210 nM | IC50 [8]: 270 nM

B4: anti-BACE1 Fab B1A4 (Fab, V domains shown)
VH: EVQLVESGGGLVQPGGSLRLSCAASGFNISYSSIHWVRQAPGKGLEWVAYISPSSSYTSYADSVKGRFTISADTSKNTAYLQMNSLRAEDTAVYYCARHYYVSVGSGIDYWGQGTLVTVSS
VL: DIQMTQSPSSLSASVGDRVTITCRASQSVSSAVAWYQQKPGKAPKLLIYSASSLYSGVPSRFSGSRSGTDFTPTISSLQPEDFATYYCQQASASPYALITFGQGTKVEIKR
IC50 [9]: 52 nM | Kd [2]: 21 nM | koff [10]: 0.0086 s⁻¹ | kon [10]: 420000 M⁻¹ s⁻¹ | Ki [4]: 41 nM

B5: anti-MMP-12 Fab LH6 (Fab, V domains shown)
VH: EVQLVESGGGLVQPGGSLRLSCAASGFNLSYSYMHWVRQAPGKGLEWVASIYPSYGSTYYADSVKGRFTISADTSKNTAYLQMNSLRAEDTAVYYCARDLEESLPKRARTAVSKELESVPYVMDYWGQGTLVTVSS
VL: B4 VL with P73L, A91S, A93H, S94Y, P95A, Y96S, A97P, L98P
Kd [11]: 950 nM | fold (KI compared with cdMMP-12 mutant D4) [12]: 16 fold | fold (KD compared with cdMMP-12 wt) [13]: 2.2 fold | Ki [14]: 1.5 µM

B6: anti-BACE1 IgG B1A4 (antibody, V domains shown)
VH: B4 VH
VL: B4 VL
IC50 [15]: 45 nM | Ki [4]: 35 nM | Kd [16]: 16 nM

B7: anti-MMP-12 Fab LG4 (Fab, V domains shown)
VH: EVQLVESGGGLVQPGGSLRLSCAASGFNLYYSYMHWVRQAPGKGLEWVASISSYYGYTSYADSVKGRFTISADTSKNTAYLQMNSLRAEDTAVYYCARSPIVYYELFMFIDMGAQGWKYGMDYWGQGTLVTVSS
VL: DIQMTQSPSSLSASVGDRVTITCRASQSVSSAVAWYQQKPGKAPKLLIYSASSLYSGVPSRFSGSRSGTDFTLTISSLQPEDFATYYCQQTFYPFTFGQGTKVEIKR
Kd [11]: 720 nM | fold (KD compared with cdMMP-12 wt) [13]: 10 fold

B8: anti-BACE1 Fab B2B5 (Fab, V domains shown)
VH: EVQLVESGGGLVQPGGSLRLSCAASGFNIYYSYMHWVRQAPGKGLEWVASIYPYYGSTYYADSVKGRFTISADTSKNTAYLQMNSLRAEDTAVYYCARWHGYPPGYSYYSSFSSSGFDYWGQGTLVTVSS
VL: DIQMTQSPSSLSASVGDRVTITCRASQSVSSAVAWYQQKPGKAPKLLIYSASSLYSGVPSRFSGSRSGTDFTPTISSLQPEDFATYYCQQSYFSYPITFGQGTKVEIKR
koff [17]: 0.024 s⁻¹ | kon [17]: 180000 M⁻¹ s⁻¹ | IC50 [18]: 97 nM | Kd [2]: 130 nM | Ki [4]: 77 nM

B9: anti-MMP-12 Fab LH11 (Fab, V domains shown)
VH: EVQLVESGGGLVQPGGSLRLSCAASGFNLSYYSMHWVRQAPGKGLEWVAYIYPYYGSTYYADSVKGRFTISADTSKNTAYLQMNSLRAEDTAVYYCARFLLSIGKLFVGDGSILHVWL
VL: B8 VL with P73L, S91A, F93Y, S94G, P96L, I97F
Kd [11]: 740 nM | fold (KI compared with cdMMP-12 mutant D4) [12]: 83 fold | fold (KD compared with cdMMP-12 wt) [13]: 9.9 fold | Ki [14]: 6.2 µM
